Source: patent US20160031996A1 (CSL, published 2016)
Numbering of substitutions follows the chain as printed. Names and notes keep the numbering of the source. One block for each molecule: values may come before it.

Tests used:
[1] = biological target: T1, full length human IL-3Rα, wild type (human, UniProt P26951 19-378); assay: flow cytometry, MFI normalised to WT (reference, set as 100%)
T1 construct: expressed in 293F cells; also called WT
T1 sequence: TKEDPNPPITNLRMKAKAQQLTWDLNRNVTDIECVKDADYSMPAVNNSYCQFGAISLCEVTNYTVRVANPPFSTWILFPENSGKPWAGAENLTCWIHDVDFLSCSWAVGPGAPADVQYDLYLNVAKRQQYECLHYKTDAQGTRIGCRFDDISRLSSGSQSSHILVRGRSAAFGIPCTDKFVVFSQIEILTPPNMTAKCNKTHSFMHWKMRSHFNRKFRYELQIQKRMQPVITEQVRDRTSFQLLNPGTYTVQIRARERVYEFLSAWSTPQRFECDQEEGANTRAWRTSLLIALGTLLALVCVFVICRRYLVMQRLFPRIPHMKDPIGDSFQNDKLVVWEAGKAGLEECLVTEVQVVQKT
Method: Median fluorescence intensity (MFI) of each antibody was determined for WT IL-3Rα and for each IL-3Rα mutant. The MFI of WT IL-3Rα staining for each antibody was set as 100% then the MFI of each mutant was normalized to a percent of WT staining.

[2] = biological target: human IL-3Rα S59A/P88T double mutant, full length (human) (UniProt P26951); assay: flow cytometry, MFI normalised to WT
[3] = biological target: human IL-3Rα E51Q/P88T double mutant, full length (human) (UniProt P26951); assay: flow cytometry, MFI normalised to WT
[4] = biological target: human IL-3Rα E51Q/S59A/P88T triple mutant, full length (human) (UniProt P26951); assay: flow cytometry, MFI normalised to WT
[5] = biological target: human IL-3Rα E51Q/S59A double mutant, full length (human) (UniProt P26951); assay: flow cytometry, MFI normalised to WT
human IL-3 = biological target: T2, human IL-3 (human, UniProt P08700 20-152); assay: flow cytometry, 293F cells expressing mutant IL-3Rα and CD131
T2 sequence (looked up): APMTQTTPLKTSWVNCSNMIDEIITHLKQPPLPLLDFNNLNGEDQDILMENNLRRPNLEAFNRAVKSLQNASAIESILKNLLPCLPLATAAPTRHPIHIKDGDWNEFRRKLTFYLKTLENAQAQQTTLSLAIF
Method: STAT5 activity was measured by flow cytometry after intracellular staining with a phosphoSTAT5 antibody (pSTAT5).

MFI as percent of WT staining [1]: 100 % of WT MFI | MFI as percent of WT staining [2]: 95.6 % of WT MFI | MFI as percent of WT staining [3]: 70.1 % of WT MFI | MFI as percent of WT staining [4]: 32.7 % of WT MFI | MFI as percent of WT staining [5]: 87 % of WT MFI
Molecule: anti-human IL-3Rα monoclonal antibody 9F5

binding result (human IL-3): binds
B1: human IL-3Rα E51Q/S59A double mutant, full length (receptor)
chain: T1 sequence with E33Q, S41A

binding result (human IL-3): binds
B2: human IL-3Rα E51Q/S59A/P88T triple mutant, full length (receptor)
chain: T1 sequence with E33Q, S41A, P70T

binding result (human IL-3): binds
B3: human IL-3Rα E51Q/P88T double mutant, full length (receptor)
chain: T1 sequence with E33Q, P70T

binding result (human IL-3): binds
B4: human IL-3Rα S59A/P88T double mutant, full length (receptor)
chain: T1 sequence with S41A, P70T
